{"source": "paper doi:10.1101/298455", "about": "(bioRxiv, 2018)", "target": "human eIF4E (human, UniProt P06730 1-217)", "sequence (P06730 whole entry)": "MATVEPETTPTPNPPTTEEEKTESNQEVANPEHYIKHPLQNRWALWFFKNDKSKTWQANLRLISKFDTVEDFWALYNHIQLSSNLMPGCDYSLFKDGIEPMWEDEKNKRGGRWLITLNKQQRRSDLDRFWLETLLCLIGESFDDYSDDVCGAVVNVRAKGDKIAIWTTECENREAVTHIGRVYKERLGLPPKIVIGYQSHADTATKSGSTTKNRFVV", "assay": "ELISA"}
{"binder": "RKKGKGKGTTVGMGKSSRRFINMYGF", "note": "[GST-VPg5 fusion protein]", "values": [{"measurement": "binding result", "result": "binds"}]}
